Results reported in paper PMC4470865 (Current biology : CB, 2015).

Molecular target: actin filaments (Alexa488 label on 3-20% of the actin in the microscopy assays)
Experiment: co-sedimentation

B1: unlabeled Tm1A (recombinant AS-Tm1A, non-muscle Drosophila tropomyosin isoform Tm1A) (natural protein)
chain: MASMTTSIPQGTLLDVLKKKMRQTKEEMEKYKDECEEFHKRLQLEVVRREEAESEVAALNRRIQLLEEDLERSEERLGSATAKLSEASQAADESERIRKALENRTNMEDDKVALLENQLAQAKLIAEEADKKYEEVARKLVLMEQDLERSEEKVELSESKIVELEEELRVVGNNLKSLEVSEEKATQKEETFETQIKVLDHSLKEAEARAEFAERSVQKLQKEVDRLEDDLLNVRGKNKLLQEEMEATLHDIQNM
  Kd: 46 nM
